Earlier results as cited in article PMC4346141.
pKd: −log10 of the molar value.

Key:
IL12Rβ2 (Homo sapiens) = IL12Rβ2 (Homo sapiens) (UniProt Q99665)
IL12Rβ1 (Homo sapiens) = IL12Rβ1 (Homo sapiens) (UniProt P42701)
[1] = molecular target: IL12Rβ1 monomer (Homo sapiens) (UniProt P42701)
[2] = molecular target: IL12Rβ1 clone 3 (Mus musculus) (UniProt Q60837)
[3] = molecular target: IL12Rβ1 clone 2 (Mus musculus) (UniProt Q60837)
Chain of IL12Rβ1 clone 2 (Mus musculus) (Q60837 20-565): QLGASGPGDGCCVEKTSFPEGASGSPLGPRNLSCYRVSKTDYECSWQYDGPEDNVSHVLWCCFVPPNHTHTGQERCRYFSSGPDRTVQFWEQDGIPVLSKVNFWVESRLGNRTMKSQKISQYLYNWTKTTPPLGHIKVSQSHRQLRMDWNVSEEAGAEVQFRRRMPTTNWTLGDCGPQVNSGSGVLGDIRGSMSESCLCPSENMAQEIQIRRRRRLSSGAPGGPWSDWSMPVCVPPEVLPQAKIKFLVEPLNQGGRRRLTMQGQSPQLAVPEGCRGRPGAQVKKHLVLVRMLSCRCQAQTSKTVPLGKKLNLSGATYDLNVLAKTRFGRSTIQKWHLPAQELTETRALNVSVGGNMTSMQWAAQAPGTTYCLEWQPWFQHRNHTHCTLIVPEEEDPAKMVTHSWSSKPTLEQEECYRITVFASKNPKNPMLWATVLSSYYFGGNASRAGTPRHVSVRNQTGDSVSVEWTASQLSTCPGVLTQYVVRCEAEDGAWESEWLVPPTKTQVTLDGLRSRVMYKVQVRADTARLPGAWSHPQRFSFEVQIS

Chain of IL12 (P29459 23-219): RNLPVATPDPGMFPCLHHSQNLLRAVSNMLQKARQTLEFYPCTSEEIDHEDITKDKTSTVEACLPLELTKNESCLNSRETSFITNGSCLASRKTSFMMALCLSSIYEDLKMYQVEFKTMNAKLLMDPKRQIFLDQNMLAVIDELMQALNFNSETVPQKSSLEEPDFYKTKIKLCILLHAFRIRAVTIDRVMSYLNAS
Chain of IL12 (P29460 23-328, further chain): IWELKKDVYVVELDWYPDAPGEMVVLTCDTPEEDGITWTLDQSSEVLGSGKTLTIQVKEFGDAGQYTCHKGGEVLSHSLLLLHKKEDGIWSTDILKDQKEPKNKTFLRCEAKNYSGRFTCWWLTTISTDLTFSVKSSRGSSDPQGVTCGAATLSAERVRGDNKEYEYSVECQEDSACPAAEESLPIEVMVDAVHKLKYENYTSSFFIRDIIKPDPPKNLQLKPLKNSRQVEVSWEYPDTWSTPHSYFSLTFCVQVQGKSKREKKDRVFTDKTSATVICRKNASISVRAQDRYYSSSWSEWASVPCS
Chain of IL12Rβ1 clone 3 (Mus musculus) (Q60837 20-565): as the sequence (Q60837 20-565) above
Chain of IL12Rβ2 (Homo sapiens) (Q99665 24-622): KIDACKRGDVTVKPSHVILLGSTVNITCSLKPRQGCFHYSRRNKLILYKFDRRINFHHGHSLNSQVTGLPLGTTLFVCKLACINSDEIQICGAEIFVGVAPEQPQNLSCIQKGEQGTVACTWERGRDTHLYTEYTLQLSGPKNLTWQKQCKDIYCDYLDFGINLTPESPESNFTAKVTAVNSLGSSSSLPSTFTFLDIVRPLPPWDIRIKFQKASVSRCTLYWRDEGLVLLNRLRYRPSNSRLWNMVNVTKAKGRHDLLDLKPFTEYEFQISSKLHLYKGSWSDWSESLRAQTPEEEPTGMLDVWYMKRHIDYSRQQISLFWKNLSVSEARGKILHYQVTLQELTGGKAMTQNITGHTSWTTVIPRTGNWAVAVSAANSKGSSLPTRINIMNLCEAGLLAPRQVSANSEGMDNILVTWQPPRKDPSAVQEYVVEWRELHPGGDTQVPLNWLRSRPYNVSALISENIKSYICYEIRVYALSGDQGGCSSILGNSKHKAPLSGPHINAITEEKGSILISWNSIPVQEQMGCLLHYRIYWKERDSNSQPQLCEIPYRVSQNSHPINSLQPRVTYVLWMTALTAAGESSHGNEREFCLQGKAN

pKd (IL12Rβ2 (Homo sapiens)) | pKd (IL12Rβ1 (Homo sapiens)) | pKd [1] | pKd [2] | pKd [3] | Substance
8.30 | 8.52 | < 7.30 |  |  | IL12 (from UniProt P29459)
 |  |  | 8.89 | 9.05 | IL12 (from UniProt P43431)
